From PMC4520738

Biological target: hDNMT1 351-1600 R582E (Homo sapiens, UniProt P26358 351-1600, R582E)
Assay: EMSA

hDNMT1 351-1600 R582E, sequence (P26358 351-1600 R582E): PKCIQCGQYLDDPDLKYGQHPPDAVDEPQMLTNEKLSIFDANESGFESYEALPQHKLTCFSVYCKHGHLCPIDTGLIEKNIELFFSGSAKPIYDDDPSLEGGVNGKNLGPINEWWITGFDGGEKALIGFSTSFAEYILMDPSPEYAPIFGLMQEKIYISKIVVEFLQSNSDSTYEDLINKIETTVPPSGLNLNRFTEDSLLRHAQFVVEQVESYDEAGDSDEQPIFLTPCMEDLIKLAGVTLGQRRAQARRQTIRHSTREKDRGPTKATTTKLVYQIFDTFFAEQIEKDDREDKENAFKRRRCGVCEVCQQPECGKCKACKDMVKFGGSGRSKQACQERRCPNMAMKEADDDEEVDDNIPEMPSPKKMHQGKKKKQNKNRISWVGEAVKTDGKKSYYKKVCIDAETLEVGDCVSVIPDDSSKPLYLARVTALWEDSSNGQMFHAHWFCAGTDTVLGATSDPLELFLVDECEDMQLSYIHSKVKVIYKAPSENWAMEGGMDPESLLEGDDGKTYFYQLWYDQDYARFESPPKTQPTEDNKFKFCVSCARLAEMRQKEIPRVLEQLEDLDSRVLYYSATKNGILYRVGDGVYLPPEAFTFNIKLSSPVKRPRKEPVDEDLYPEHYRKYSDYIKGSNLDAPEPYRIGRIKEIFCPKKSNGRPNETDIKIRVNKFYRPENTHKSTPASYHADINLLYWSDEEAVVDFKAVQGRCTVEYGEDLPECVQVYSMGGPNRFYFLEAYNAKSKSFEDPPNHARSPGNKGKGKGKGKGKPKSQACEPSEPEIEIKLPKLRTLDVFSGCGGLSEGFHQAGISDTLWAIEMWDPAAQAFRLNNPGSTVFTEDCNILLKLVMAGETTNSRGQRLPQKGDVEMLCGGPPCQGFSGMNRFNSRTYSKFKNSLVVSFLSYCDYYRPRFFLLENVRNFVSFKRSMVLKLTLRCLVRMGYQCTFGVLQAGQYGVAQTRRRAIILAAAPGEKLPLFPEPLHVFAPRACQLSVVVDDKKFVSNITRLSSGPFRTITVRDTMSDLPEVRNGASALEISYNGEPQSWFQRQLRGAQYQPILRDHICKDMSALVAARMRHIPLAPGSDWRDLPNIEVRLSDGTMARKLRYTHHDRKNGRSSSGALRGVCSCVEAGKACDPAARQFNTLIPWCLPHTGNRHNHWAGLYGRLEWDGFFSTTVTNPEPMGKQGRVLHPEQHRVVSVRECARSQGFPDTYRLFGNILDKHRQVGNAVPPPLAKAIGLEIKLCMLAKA

B1: 26-mer hemimethylated CpG DNA (dsDNA)
DNA 1: ACACCAAGCCTGCGGAGGCTCACGGA
DNA 2: TCCGTGAGCCTCCGCAGGCTTGGTGT
modifications: 5-methyl-2'-deoxycytidine at position 13 of strand 1 (upper)
binding result: binds
